Data reported in patent US20240132485A1, “HETEROCYCLIC CULLIN RING UBIQUITIN LIGASE COMPOUNDS AND USES THEREOF” (CEMM - FORSCHUNGSZENTRUM FÜR MOLEKULARE MEDIZIN GMBH, priority 2020, published 2024).

How the values were obtained:
[1] = biological target: Nanoluc_DDB1 (N-terminal Nanoluc luciferase, G4S linker, DDB1 (FL)) (UniProt Q16531); experiment: NanoBRET in HEK293T cells, 10 µM compound Example 3-3; class D = 1-2 fold increase
[2] = biological target: Nanoluc_DDB1 (N-terminal Nanoluc luciferase, G4S linker, DDB1 (FL)) (UniProt Q16531); experiment: NanoBRET in HEK293T cells, 10 µM compound Example 3-40; class B = 3-4 fold increase
[3] = biological target: Nanoluc_DDB1 (N-terminal Nanoluc luciferase, G4S linker, DDB1 (FL)) (UniProt Q16531); experiment: NanoBRET in HEK293T cells, 10 µM compound Example 3-32; class B = 3-4 fold increase
[4] = biological target: Nanoluc_DDB1 (N-terminal Nanoluc luciferase, G4S linker, DDB1 (FL)) (UniProt Q16531); experiment: NanoBRET in HEK293T cells, 10-point titration of compound Example 3-3; class E = >10 µM
[5] = biological target: Nanoluc_DDB1 (N-terminal Nanoluc luciferase, G4S linker, DDB1 (FL)) (UniProt Q16531); experiment: NanoBRET in HEK293T cells, 10 µM compound Example 3-59; class C = 2-3 fold increase
[6] = biological target: Nanoluc_DDB1 (N-terminal Nanoluc luciferase, G4S linker, DDB1 (FL)) (UniProt Q16531); experiment: NanoBRET in HEK293T cells, 10 µM compound Example 3-45; class A = greater than 4-fold increase
[7] = biological target: Nanoluc_DDB1 (N-terminal Nanoluc luciferase, G4S linker, DDB1 (FL)) (UniProt Q16531); experiment: NanoBRET in HEK293T cells, 10 µM compound Example 3-14; class A = greater than 4-fold increase
[8] = biological target: Nanoluc_DDB1 (N-terminal Nanoluc luciferase, G4S linker, DDB1 (FL)) (UniProt Q16531); experiment: NanoBRET in HEK293T cells, 10 µM compound Example 3-65; class B = 3-4 fold increase
[9] = biological target: Nanoluc_DDB1 (N-terminal Nanoluc luciferase, G4S linker, DDB1 (FL)) (UniProt Q16531); experiment: NanoBRET in HEK293T cells, 10 µM compound Example 3-42; class A = greater than 4-fold increase
[10] = biological target: Nanoluc_DDB1 (N-terminal Nanoluc luciferase, G4S linker, DDB1 (FL)) (UniProt Q16531); experiment: NanoBRET in HEK293T cells, 10 µM compound Example 3-54; class C = 2-3 fold increase
[11] = biological target: Nanoluc_DDB1 (N-terminal Nanoluc luciferase, G4S linker, DDB1 (FL)) (UniProt Q16531); experiment: NanoBRET in HEK293T cells, 10 µM compound Example 3-64; class A = greater than 4-fold increase
[12] = biological target: Nanoluc_DDB1 (N-terminal Nanoluc luciferase, G4S linker, DDB1 (FL)) (UniProt Q16531); experiment: NanoBRET in HEK293T cells, 10-point titration of compound Example 3-53; class E = >10 µM
[13] = biological target: Nanoluc_DDB1 (N-terminal Nanoluc luciferase, G4S linker, DDB1 (FL)) (UniProt Q16531); experiment: NanoBRET in HEK293T cells, 10 µM compound Example 3-13; class B = 3-4 fold increase
[14] = biological target: Nanoluc_DDB1 (N-terminal Nanoluc luciferase, G4S linker, DDB1 (FL)) (UniProt Q16531); experiment: NanoBRET in HEK293T cells, 10 µM compound Example 3-18; class C = 2-3 fold increase
[15] = biological target: Nanoluc_DDB1 (N-terminal Nanoluc luciferase, G4S linker, DDB1 (FL)) (UniProt Q16531); experiment: NanoBRET in HEK293T cells, 10-point titration of compound Example 3-22; class E = >10 µM
[16] = biological target: Nanoluc_DDB1 (N-terminal Nanoluc luciferase, G4S linker, DDB1 (FL)) (UniProt Q16531); experiment: NanoBRET in HEK293T cells, 10 µM compound Example 3-19; class A = greater than 4-fold increase
[17] = biological target: Nanoluc_DDB1 (N-terminal Nanoluc luciferase, G4S linker, DDB1 (FL)) (UniProt Q16531); experiment: NanoBRET in HEK293T cells, 10-point titration of compound Example 3-1; class A = EC50<=0.25 µM
[18] = biological target: Nanoluc_DDB1 (N-terminal Nanoluc luciferase, G4S linker, DDB1 (FL)) (UniProt Q16531); experiment: NanoBRET in HEK293T cells, 10 µM compound Example 3-15; class D = 1-2 fold increase
[19] = biological target: Nanoluc_DDB1 (N-terminal Nanoluc luciferase, G4S linker, DDB1 (FL)) (UniProt Q16531); experiment: NanoBRET in HEK293T cells, 10 µM compound Example 3-9; class A = greater than 4-fold increase
[20] = biological target: Nanoluc_DDB1 (N-terminal Nanoluc luciferase, G4S linker, DDB1 (FL)) (UniProt Q16531); experiment: NanoBRET in HEK293T cells, 10 µM compound Example 3-34; class C = 2-3 fold increase
[21] = biological target: Nanoluc_DDB1 (N-terminal Nanoluc luciferase, G4S linker, DDB1 (FL)) (UniProt Q16531); experiment: NanoBRET in HEK293T cells, 10 µM compound Example 3-25; class B = 3-4 fold increase
[22] = biological target: Nanoluc_DDB1 (N-terminal Nanoluc luciferase, G4S linker, DDB1 (FL)) (UniProt Q16531); experiment: NanoBRET in HEK293T cells, 10 µM compound Example 3-44; class A = greater than 4-fold increase
[23] = biological target: Nanoluc_DDB1 (N-terminal Nanoluc luciferase, G4S linker, DDB1 (FL)) (UniProt Q16531); experiment: NanoBRET in HEK293T cells, 10 µM compound Example 3-49; class B = 3-4 fold increase
[24] = biological target: Nanoluc_DDB1 (N-terminal Nanoluc luciferase, G4S linker, DDB1 (FL)) (UniProt Q16531); experiment: NanoBRET in HEK293T cells, 10 µM compound Example 3-17; class A = greater than 4-fold increase
[25] = biological target: Nanoluc_DDB1 (N-terminal Nanoluc luciferase, G4S linker, DDB1 (FL)) (UniProt Q16531); experiment: NanoBRET in HEK293T cells, 10-point titration of compound Example 3-64; class E = >10 µM
[26] = biological target: Nanoluc_DDB1 (N-terminal Nanoluc luciferase, G4S linker, DDB1 (FL)) (UniProt Q16531); experiment: NanoBRET in HEK293T cells, 10 µM compound Example 3-7; class B = 3-4 fold increase

Sequence of Nanoluc_DDB1 (N-terminal Nanoluc luciferase, G4S linker, DDB1 (FL)) (Q16531 other isoform, or with tags, fused parts or gaps): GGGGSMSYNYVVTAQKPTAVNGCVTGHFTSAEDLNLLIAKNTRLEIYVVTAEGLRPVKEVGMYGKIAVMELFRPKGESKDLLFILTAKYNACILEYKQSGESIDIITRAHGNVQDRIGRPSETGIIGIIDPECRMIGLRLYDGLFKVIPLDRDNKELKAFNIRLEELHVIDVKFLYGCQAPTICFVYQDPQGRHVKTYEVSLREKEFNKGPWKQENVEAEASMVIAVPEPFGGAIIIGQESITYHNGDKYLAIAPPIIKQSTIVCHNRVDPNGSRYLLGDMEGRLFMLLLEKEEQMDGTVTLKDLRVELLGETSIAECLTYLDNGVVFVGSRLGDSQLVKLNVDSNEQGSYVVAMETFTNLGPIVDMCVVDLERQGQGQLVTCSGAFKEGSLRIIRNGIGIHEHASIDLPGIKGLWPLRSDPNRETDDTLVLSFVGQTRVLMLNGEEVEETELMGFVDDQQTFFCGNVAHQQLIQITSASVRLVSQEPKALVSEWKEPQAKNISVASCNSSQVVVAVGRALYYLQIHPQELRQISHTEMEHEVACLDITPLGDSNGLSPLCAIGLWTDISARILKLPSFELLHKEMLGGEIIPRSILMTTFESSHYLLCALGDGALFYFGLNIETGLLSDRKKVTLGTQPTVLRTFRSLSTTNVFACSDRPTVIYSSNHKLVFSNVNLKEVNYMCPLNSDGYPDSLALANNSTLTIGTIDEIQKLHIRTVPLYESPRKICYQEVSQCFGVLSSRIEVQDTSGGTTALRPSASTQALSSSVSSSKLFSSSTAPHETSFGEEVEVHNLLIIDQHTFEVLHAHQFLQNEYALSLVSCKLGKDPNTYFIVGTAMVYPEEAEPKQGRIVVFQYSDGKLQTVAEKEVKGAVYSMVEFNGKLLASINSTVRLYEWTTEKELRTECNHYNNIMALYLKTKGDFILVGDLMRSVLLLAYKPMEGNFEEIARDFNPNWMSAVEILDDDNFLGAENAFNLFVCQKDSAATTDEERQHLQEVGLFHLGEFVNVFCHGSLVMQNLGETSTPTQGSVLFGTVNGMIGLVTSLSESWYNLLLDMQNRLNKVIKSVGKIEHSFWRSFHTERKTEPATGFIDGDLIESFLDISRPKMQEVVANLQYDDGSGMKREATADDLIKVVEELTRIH

For “HaloTag_CDK12 (N-terminal HaloTag, G4S linker, CDK12 (713-1052)) (from UniProt Q9NYV4 713-1052) (enzyme)”, the NanoBRET fold increase [1] was 1 to 2 fold, the NanoBRET fold increase [2] was 3 to 4 fold and the NanoBRET fold increase [3] was 3 to 4 fold. It also gave an EC50 [4] of over 10 µM, a NanoBRET fold increase [5] of 2 to 3 fold and a NanoBRET fold increase [6] of over 4 fold. The NanoBRET fold increase [7] was over 4 fold, the NanoBRET fold increase [8] was 3 to 4 fold and the NanoBRET fold increase [9] was over 4 fold. It also gave a NanoBRET fold increase [10] of 2 to 3 fold, a NanoBRET fold increase [11] of over 4 fold and an EC50 [12] of over 10 µM. It also gave a NanoBRET fold increase [13] of 3 to 4 fold, a NanoBRET fold increase [14] of 2 to 3 fold and an EC50 [15] of over 10 µM. For the same substance, the NanoBRET fold increase [16] was over 4 fold, the EC50 [17] was under 0.25 µM and the NanoBRET fold increase [18] was 1 to 2 fold. The NanoBRET fold increase [19] was over 4 fold, the NanoBRET fold increase [20] was 2 to 3 fold and the NanoBRET fold increase [21] was 3 to 4 fold. The NanoBRET fold increase [22] was over 4 fold, the NanoBRET fold increase [23] was 3 to 4 fold and the NanoBRET fold increase [24] was over 4 fold. For the same substance, the EC50 [25] was over 10 µM and the NanoBRET fold increase [26] was 3 to 4 fold.
